# Results from patent US20250249113A1, “LIGAND-DRUG-CONJUGATES WITH IMPROVED PHARMACOKINETIC AND DRUG RELEASE PROPERTIES” (Debiopharm Research & Manufacturing S.A., priority 2022, published 2025).
# B1: Debio 1562: Comparative example: naratuximab reacted with crosslinking reagent SMCC and the maytansinoid DM1; DAR 3.5 (conjugate, chains of the INN, looked up)
# VH: QVQVQESGPGLVAPSQTLSITCTVSGFSLTTSGVSWVRQPPGKGLEWLGVIWGDGSTNYHPSLKSRLSIKKDHSKSQVFLKLNSLTAADTATYYCAKGGYSLAHWGQGTLVTVSS
# VL: DIQMTQSPSSLSVSVGERVTITCRASENIRSNLAWYQQKPGKSPKLLVNVATNLADGVPSRFSGSGSGTDYSLKINSLQPEDFGTYYCQHYWGTTWTFGQGTKLEIK
# modifications: SMCC-DM1, DAR 3.5
# Key:
# Experiment in all cases: In vitro cytotoxicity on DLBCL cell lines panel (CellTiter Glo)
# Assay type in all cases: cell-based
# OCI-LY19 cells = settings: OCI-LY19 cell line, 72 hours of incubation, relative IC50
# Description: (§1) After 72 hours of incubation, plates were inspected under an inverted microscope to ensure growth of the controls and sterile conditions. Then, 50 μL CellTiter Glo (Promega, G7572) were added prior to luminescence reading as per the manufacturer's instructions. Relative IC50 were calculated using GraphPad Prism.
# SU-DHL-2 cells = settings: SU-DHL-2 cell line, 72 hours of incubation, relative IC50
# Description: as §1
# DOHH-2 cells = settings: DOHH-2 cell line, 72 hours of incubation, relative IC50
# Description: as §1
# HBL-1 cells = settings: HBL-1 cell line, 72 hours of incubation, relative IC50
# Description: as §1
# WSU-DLCL2 cells = settings: WSU-DLCL2 cell line, 72 hours of incubation, relative IC50
# Description: as §1
# OCI-LY7 cells = settings: OCI-LY7 cell line, 72 hours of incubation, relative IC50
# Description: as §1
# WSU-NHL cells = settings: WSU-NHL cell line, 72 hours of incubation, relative IC50
# Description: as §1
# SU-DHL-4 cells = settings: SU-DHL-4 cell line, 72 hours of incubation, relative IC50
# Description: as §1
# KARPAS-422 cells = settings: KARPAS-422 cell line, 72 hours of incubation, relative IC50
# Description: as §1
# SU-DHL-8 cells = settings: SU-DHL-8 cell line, 72 hours of incubation, relative IC50
# Description: as §1
# SU-DHL-6 cells = settings: SU-DHL-6 cell line, 72 hours of incubation, relative IC50
# Description: as §1
# Pfeiffer cells = settings: Pfeiffer cell line, 72 hours of incubation, relative IC50
# Description: as §1
# Toledo cells = settings: Toledo cell line, 72 hours of incubation, relative IC50
# Description: as §1
# A3/KAW cells = settings: A3/KAW cell line, 72 hours of incubation, relative IC50
# Description: as §1
# OCI-LY3 cells = settings: OCI-LY3 cell line, 72 hours of incubation, relative IC50
# Description: as §1
# U-2932 cells = settings: U-2932 cell line, 72 hours of incubation, relative IC50
# Description: as §1
# SU-DHL-5 cells = settings: SU-DHL-5 cell line, 72 hours of incubation, relative IC50
# Description: as §1
molecule,measurement,setting,value
B1,IC50,OCI-LY19 cells,45.5 nM
same,IC50,SU-DHL-2 cells,7.78 nM
same,IC50,DOHH-2 cells,0.949 nM
same,IC50,HBL-1 cells,0.217 nM
same,IC50,WSU-DLCL2 cells,9.59 nM
same,IC50,OCI-LY7 cells,79.3 nM
same,IC50,WSU-NHL cells,0.19 nM
same,IC50,SU-DHL-4 cells,0.983 nM
same,IC50,KARPAS-422 cells,20.5 nM
same,IC50,SU-DHL-8 cells,21.5 nM
same,IC50,SU-DHL-6 cells,1.74 nM
same,IC50,Pfeiffer cells,73.5 nM
same,IC50,Toledo cells,90 nM
same,IC50,A3/KAW cells,33 nM
same,IC50,OCI-LY3 cells,0.352 nM
same,IC50,U-2932 cells,3.57 nM
same,IC50,SU-DHL-5 cells,0.901 nM
